Biological target: CPIII-Long (model substrate derived from procollagen III)
Assay: cell-based or functional assay

## human PCPE-1 fused to a C-terminal 8His tag (from UniProt Q15113 26-449)
  enhancement factor of CPIII-Long cleavage by BMP-1 with 4 equivalents: > 3
  enhancement factor of CPIII-Long processing by BMP-1: 1.7

From patent EP4484444A1
